RSV Neutralization - IC50 data for 22 molecules are collected here from patent publication US20260028391A1.

Residue numbers refer to the chain shown, from its start.

First the molecules themselves.
B1: MPK173 (antibody, V domains shown)
VH: QVQLVQSGAEVRKPGASVKVSCRASGYTFSNFGITWVRQAPGQGLEWMGWISAYNGNTKSAQKFQDRVTMTTDTTTSTAYMELRSLRSDDTAVYYCARDTPSSDGAALLDYWGQGTLVTVSS
VL: DIVMTQTPLSLPVTLGQPASISCRSSQSLVYSDGNTYLSWFQQRPGQSPRRLIYKVSNRDSGVPDRFSGSGSGTYFTLKINRVEAEDVGVYYCMQSKYWLTFGQGTKVEIK
B2: MPK187 (antibody, V domains shown)
VH: QVQLVQSGAEVKKPGASVKVSCKTSGYYFNDYFIHWVRHAPGQGLEWMGWVNPLSGATVYAQKFQGWVTLTRDTSINTAYMELTRLTSNDTAMYYCATGALFWTGPTYWGQGTPVTVSA
VL: EIVLTQSPATLSLFPGERATLSCRTSQFVSNNLAWYQQRPGQAPRLLIYDASSRASGTPGRFSASGSGTDFTLTVSSLETEDFAIYYCQHRSNWPPGITFGPGTRVDIR
B3: MPK197 (antibody, V domains shown)
VH: B2 VH with M93L
VL: B2 VL with L4M, T5M, F14S, T25A, F28S, V29I, R39K, P40T, I108V
B4: MPK161-v1 (antibody, V domains shown)
VH: EVQLVQSGVEAKKPGESLKISCRASGYSFVNFWIGWVRQVPGKGLEWMGFIYPFDSDTKYGPSFEGHVIISADKSTNTAYLEWRSLRASDSAMYYCARFTFGIALVAGDVTGGGQAFEVWGQGTLVSVSS
VL: AIWMTQSPSTLSASVGDRVTVTCRASLSIGTWLAWYQHKPGKAPKFLIYKASSLESGVPSRFSGSGSGTEFTLTISSLQPDDFATYYCQQYDSYPFTFGGGTKVEIK
B5: MPK161-v2 (antibody, V domains shown)
VH: B4 VH
VL: EIVMMQSPATLSVSPGDRATLSCRASQSVAGNLAWYQQRPGQAPRLLIYAASTRATGVPARFSGSGSETEFTLTISSLQSEDFAVYYCHHYSNWPQAFGQGTRLDIK
B6: MPK180 (antibody, V domains shown)
VH: QVQLVQSGAEVKKPGESLRISCKASGYSFASYWIGWVRQKPGKGPEWMGIIFPNDSDTEYSPSFEGQVSISADKSTSTVHLQWGSLKASDTAVYYCGRMYYLGALETWGQGTMVTVSS
VL: AIRMTQSPSSLSASVGDRVTIVCQASHDISNFLNWYQQRPGQAPKLLIYDASFLETGVPSRFSGSGSGTYFTLTISSLQPEDFATYYCQRYDNRFFTFGPGTKVDIK
B7: MPK179-v4 (antibody, V domains shown)
VH: QVQLVQSRAEVKKPGESLKISCRASGYSFINYWIGWVRQMPGKGLEWMGIIYPFDSDTKYSPSFEGHVTISADKSINTAYVQWSSLKASDTAIYYCARFTFGIALVAGDVGGEGHAFDIWGQGTLVTVSS
VL: DIVMTQSPSSLSASVGDRVTITCRASQTISTYLNWYQQKPGKAPKLLIYAASRLQSGVPSRFSGSGSGTDFTLTISSLQPEDFATYFCQQSYNAPPFTFGPGTKVDIR
B8: MPK170 (antibody, V domains shown)
VH: QVQLVQSGAEVKKPGESLKISCKGSGYSFINYWIGWVRQMPGKGLEWMGIIYPFDSDTKYSPSFQGHVTISADKSINTAYVQWSSLKASDTAIYYCARFTFGIAVSTDDVSGEGQAFDLWGQGTRVTVSS
VL: B5 VL with D17E, A51G, T53A
B9: MPK188 (antibody, V domains shown)
VH: EVQLVQSGAEVKKPGESLKISCQASGYSFINYWIGWVRQMPGKGLEWMGIIYPFDSDTNYSPSFQGLVTISADKSINTAYLQWRSLKASDTAMYYCARFTFGIALVAGDVNGEGHAFDIWGQGTVVTVSS
VL: B5 VL with M5T, D17E, R18S, S28G, A50G, A51T
B10: MPK193 (antibody, V domains shown)
VH: EVQLVQSGAEVKKPGESLKISCEASGYSFNNYWIGWVRQMPGKGLEWMGIIYPFDSDTKYSPSFQGHVTISADKSINTAYLQWSSLKASDTAMYFCARFTFGIVLVAGDVTGEGHAFDVWGRGTMVTVTS
VL: B5 VL with A9V, D17G, A50G
B11: MPK189 (antibody, V domains shown)
VH: B8 VH with I93M, S106V, G112D, Q115H, L119I, R125M
VL: B5 VL with D17E, A50G, H89Q, H90Q
B12: MPK168 (antibody, V domains shown)
VH: EVQLVQSGAEVKKPGESLKISCQVSGYSFVNYWIGWVRQVPGKGLEWMGLIYPFDSDTQYSPSFQGHVTISADTSITTAYLQWSSLQASDTATYYCARFTFGLALVTAGLTDDGQAFDFWGQGTVVTVSS
VL: EIVMMQSPATLSVSPGERATLSCRATESVAGKLAWYQQRPGQTPRLLIYGASARATGVPARFSGSGSETEFTLTISSLQSEDFAVYYCQQYSTWPHAFGQGTRLDIK
B13: MPK198 (antibody, V domains shown)
VH: B8 VH with Q1E, I93M, S106V, L119I, R125M
VL: B5 VL with D17E, A50G, H89Q, H90Q
B14: MPK178 (antibody, V domains shown)
VH: EVQLVQSGAEVKKPGESLKISCRASGYSFVNYWIGWVRQVPGKGLEWMGFIYPFDSDTQYSPSFQGHVTISADKSINTAYLQWSSLRASDTAIYYCARFTFGIALVAGDVTGGGQAFEVWGQGTLVSVSS
VL: B5 VL with E1D, M5T, A9V, D17E
B15: MPK165 (antibody, V domains shown)
VH: B14 VH with V30N, I34V, Q59K, Q65E, N77D, A88S, S127T
VL: B5 VL with M5T, D17E, N32K, L47I, T56A
B16: MPK186 (antibody, V domains shown)
VH: B8 VH with K23Q, D57E, I93M, S106V, S111Y, G114A, A116G, L119I, R125M
VL: B5 VL with E1D, M5T, S7T, D17E, A30D, A50G, H89Q
B17: MPK175 (antibody, V domains shown)
VH: QVQLVQSGAEVKKPGESLKISCQASGYSFINYWIGWVRQKPGKGLEWMGIIYPFDSETKYSPSFQGHVTISADRFTNTAYVQWTSLKASDTAIYYCARFTFGLAVVAGGLSDDGQAFDIWGQGTRVTVSS
VL: B5 VL with M4L, M5T, D17E, G31A, A43T, A50G, S80P, N93D
B18: MPK171-v2 (antibody, V domains shown)
VH: B8 VH with I93M, S106V, Q115H, L119I, R125M
VL: B5 VL with E1Q, I2S, M4L, M5T, D17E, A50G, H89Q, H90Q
B19: MPK194-v2 (antibody, V domains shown)
VH: QVQLVESGGGVVQPGRSLRLSCVASGFTFSNYPLHWVRQAPGKGLQWVAVISYDGSENYYADSVKGRFTISRDNSKSTLYLQMNSLRPEDTAIYYCARSKVAGGSYYFDYWGQGTLVPVSS
VL: SYELTQPPSVSVAPGQAARVSCGGNNIGSQYVQWYQQKPGQAPVLVIYDDDDRPSGIPERFSGSNSGSTATLTISRVEAGDEADYYCQVWDKSNHVVVFGGGTKLTVL
B20: MPK203 (antibody, V domains shown)
VH: EVQLVQSGPQVKKPGAAVKVSCKASGFTFTDTTVNWVRQTRGQRLEWMGWIAVGSGTTNYAQKFRDRVTISRDTSTDTAYMELGGLTHDDTAVYYCTTEASRTWFVQTSPFVGFDPWGQGTLVTVSS
VL: EIVLTQSPGTLSLSPGERATLSCRASQSVSSSYFAWYQQKPGQTPRVLIYGASNRAPDIPDRFSGSGSGTDFILTISRLEPEDFAIYYCQHYGSSPTFGQGTKVEIK
B21: MPK163 (antibody, V domains shown)
VH: EVQLVQSGAEVKKPGESLKMSCKTSGYSFRSYWIAWVRQRPGKGLEWMGIIWPGDSDVRYGPSFQGQVTISADRSTNTAYLQWSSLKASDTAIYWCARQNYDFWSGHSLGTGADYYYGMDVWGQGTTVTVSS
VL: SSELTQPPSASGTPGQRVTISCSGSSSNIGRNIVHWYQHVPGTAPKLLIYNNDERPSGVPDRFSGSKSGTSASLAISGLQSEDEADYYCTVWDDSLNGGVFGGGTKVTVL
B22: MPK176 (antibody, V domains shown)
VH: QVQLVQSGAEVKKPGASVRVSCKASGYTLTAYGISWVRQAPGQGLEWMGWISPKHGNTHYAQRFQGRVTMTTDTSTSTAYMELRSLRPDDTAVYFCAREGVDIMAVPWYFDYWGQGTLVAVSS
VL: SYELTQPPSVSVAPGQTARISCGGNNIGSKSVHWYQQKPGQAPVVVVYDDSDRPSGIPERFSGSNSGNTATLTISGVEAGDEADYFCQVWDSATDHWVFGGGTKLTVL

In the assay the target is fusion glycoprotein of the RSV used in the neutralization assay of Example 1 (respiratory syncytial virus (strain not stated)). As to the kind of experiment: cell-based or functional assay.
For B1, the RSV Neutralization - IC50 was 10.2 ng/mL.

B2 gave an RSV Neutralization - IC50 of 9.1 ng/mL.

Molecule B3 had an RSV Neutralization - IC50 of 14.7 ng/mL.

In turn, B4 came in with an RSV Neutralization - IC50 of 2.8 ng/mL.

With B5, the RSV Neutralization - IC50 was determined as 1.1 ng/mL.

In the case of B6, the RSV Neutralization - IC50 was found to be 1.5 ng/mL.

In turn, B7 showed an RSV Neutralization - IC50 of 6.6 ng/mL.

As to B8, the RSV Neutralization - IC50 was 1.1 ng/mL.

B9 returned an RSV Neutralization - IC50 of 1 ng/mL.

For the molecule B10, the RSV Neutralization - IC50 is 1 ng/mL.

The molecule B11 gave an RSV Neutralization - IC50 of 1.2 ng/mL.

Molecule B12 displayed an RSV Neutralization - IC50 of 1.3 ng/mL.

For B13, the RSV Neutralization - IC50 came out at 1.2 ng/mL.

Take B14: the RSV Neutralization - IC50 was 1 ng/mL.

B15 yielded an RSV Neutralization - IC50 of 1 ng/mL.

As to B16, the RSV Neutralization - IC50 worked out at 1.2 ng/mL.

With B17, the RSV Neutralization - IC50 is 1.6 ng/mL.

The molecule B18 yielded an RSV Neutralization - IC50 of 1 ng/mL.

Consider B19, for which the RSV Neutralization - IC50 is 2.6 ng/mL.

Take B20: the RSV Neutralization - IC50 is 2 ng/mL.

B21: the RSV Neutralization - IC50 is 1.4 ng/mL.

In turn, B22 showed an RSV Neutralization - IC50 of 4.2 ng/mL.
